Laboratory results as given in patent US20190144507A1 (GlaxoSmithKline, published 2019).

Target: T1, VZV gH (VZV (strain ), UniProt Q775J3 18-841)
T1 sequence: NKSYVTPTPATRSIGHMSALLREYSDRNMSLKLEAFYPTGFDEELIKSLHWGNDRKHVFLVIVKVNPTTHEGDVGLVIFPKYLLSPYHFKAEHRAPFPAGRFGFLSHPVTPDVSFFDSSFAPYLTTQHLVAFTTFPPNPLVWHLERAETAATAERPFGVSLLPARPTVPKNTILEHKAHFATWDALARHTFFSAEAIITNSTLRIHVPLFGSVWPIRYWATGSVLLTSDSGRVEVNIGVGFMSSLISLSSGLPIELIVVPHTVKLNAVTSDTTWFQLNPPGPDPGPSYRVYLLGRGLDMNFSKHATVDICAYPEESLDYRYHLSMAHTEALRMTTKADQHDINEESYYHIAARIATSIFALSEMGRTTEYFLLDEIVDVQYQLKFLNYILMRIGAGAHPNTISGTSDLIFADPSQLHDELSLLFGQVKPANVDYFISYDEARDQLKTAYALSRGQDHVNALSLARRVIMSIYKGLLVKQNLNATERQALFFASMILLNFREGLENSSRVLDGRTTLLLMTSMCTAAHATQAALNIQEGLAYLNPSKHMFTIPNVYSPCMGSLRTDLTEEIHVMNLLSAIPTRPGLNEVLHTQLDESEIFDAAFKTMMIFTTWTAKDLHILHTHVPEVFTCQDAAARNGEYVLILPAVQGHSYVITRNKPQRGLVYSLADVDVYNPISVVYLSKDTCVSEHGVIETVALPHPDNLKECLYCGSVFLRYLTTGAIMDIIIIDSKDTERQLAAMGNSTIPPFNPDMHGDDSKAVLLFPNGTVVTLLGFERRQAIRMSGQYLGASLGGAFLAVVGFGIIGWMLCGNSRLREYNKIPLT
Assay: immunofluorescence with antibody SG3 on transfected BHK-V cells

B1: VZV gL (other)
chain: LHLQDDTPLFFGAKPLSDVSLIITEPCVSSVYEAWDYAAPPVSNLSEALSGIVVKTKCPVPEVILWFKDKQMAYWTNPYVTLKGLTQSVGEEHKSGDIRDALLDALSGVWVDSTPSSTNIPENGCVWGADRLFQRVCQ
- binding result: binds
